According to publication PMC4474532 (2015):

B1: BiP (natural protein)
chain: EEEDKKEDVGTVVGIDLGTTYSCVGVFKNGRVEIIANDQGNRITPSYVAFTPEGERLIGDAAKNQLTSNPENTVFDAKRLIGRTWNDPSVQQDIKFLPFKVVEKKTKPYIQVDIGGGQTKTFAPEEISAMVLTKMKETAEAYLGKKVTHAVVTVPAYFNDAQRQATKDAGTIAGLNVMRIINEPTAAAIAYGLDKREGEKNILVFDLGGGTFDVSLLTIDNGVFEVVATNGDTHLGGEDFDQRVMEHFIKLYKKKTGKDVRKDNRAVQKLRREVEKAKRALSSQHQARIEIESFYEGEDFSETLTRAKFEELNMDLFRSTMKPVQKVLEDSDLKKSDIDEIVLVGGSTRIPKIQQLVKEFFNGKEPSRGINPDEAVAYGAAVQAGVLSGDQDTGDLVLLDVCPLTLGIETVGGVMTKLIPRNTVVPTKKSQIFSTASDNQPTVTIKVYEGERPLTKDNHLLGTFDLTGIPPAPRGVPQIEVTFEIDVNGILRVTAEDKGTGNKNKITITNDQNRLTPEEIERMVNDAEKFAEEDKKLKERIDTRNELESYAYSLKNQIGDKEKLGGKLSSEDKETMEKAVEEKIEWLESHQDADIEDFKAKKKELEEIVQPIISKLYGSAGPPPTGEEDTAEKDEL
B2: human PERK luminal domain (residues 105–403) (domain or fragment)
chain: LVIISTLDGRIAALDPENHGKKQWDLDVGSGSLVSSSLSKPEVFGNKMIIPSLDGALFQWDQDRESMETVPFTVESLLESSYKFGDDVVLVGGKSLTTYGLSAYSGKVRYICSALGCRQWDSDEMEQEEDILLLQRTQKTVRAVGPRSGNEKWNFSVGHFELRYIPDMETRAGFIESTFKPNENTEESKIISDVEEQEAAIMDIVIKVSVADWKVMAFSKKGGHLEWEYQFCTPIASAWLLKDGKVIPISLFDDTSYTSNDDVLEDEEDIVEAARGATENSVYLGMYRGQLYLQSSVRI

What was measured:
Assay in all cases: MST
[1] = molecular target: PERK luminal domain L395N (human, UniProt Q9NZJ5 105-403, L395N)
[2] = molecular target: PERK luminal domain A378N (human, UniProt Q9NZJ5 105-403, A378N)
[3] = molecular target: B1

Row | Kd [1] [µM] | Kd [2] [µM] | Kd [3] [µM] | Binder
1 | 1.8 | 2.3 |  | B1
2 |  |  | 2 | B2
